In patent publication US7205275 (dated 2007):
Primed or numbered codes have the meaning given here. Where no end group is shown, it is not given here. [ ]: non-standard residue; d: D form. Fc(3) = Fc: non-antigen-binding fragment of an antibody from proteolytic digestion of a whole antibody (vehicle); Fc(4) = non-antigen-binding fragment of an antibody (from proteolytic digestion of a whole antibody); Fc = immunoglobulin Fc domain fused to the peptide (peptibody); Fc(7) = Fc domain, peptide fused N- or C-terminal to it; Fc″ = Fc domain of the peptibody fusion

T1: human Ang-2 (human, UniProt O15123)
T1 chain: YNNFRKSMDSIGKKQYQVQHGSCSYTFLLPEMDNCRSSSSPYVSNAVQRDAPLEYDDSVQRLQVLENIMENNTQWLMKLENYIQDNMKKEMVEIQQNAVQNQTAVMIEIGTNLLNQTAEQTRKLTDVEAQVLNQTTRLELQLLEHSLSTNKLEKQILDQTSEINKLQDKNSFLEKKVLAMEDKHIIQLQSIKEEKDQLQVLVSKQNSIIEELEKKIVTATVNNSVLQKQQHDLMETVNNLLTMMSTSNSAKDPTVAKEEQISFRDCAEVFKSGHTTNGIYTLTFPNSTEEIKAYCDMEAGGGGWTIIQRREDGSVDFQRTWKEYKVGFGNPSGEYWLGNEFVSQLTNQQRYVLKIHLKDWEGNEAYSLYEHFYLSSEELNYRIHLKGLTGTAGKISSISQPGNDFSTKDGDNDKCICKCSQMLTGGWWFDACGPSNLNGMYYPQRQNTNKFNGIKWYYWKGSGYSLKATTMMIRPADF

B1: Con1-2 (C) (peptide)
chain: M[Fc]GGGGGAQQTWDDPCMHILGPVTWRRCILE
modifications: not fully specified (bridges); cysteine pairing not given here; also: Fc fusion domain at position 2

Biological target: T1, human Ang-2
Test: competition ELISA vs Tie-2

Row | IC50 [nM] | Binder
1 | 15 | M[Fc(7)]GGGGGAQFDYCEGVEDPFTFGCDNHLE (not fully specified (bridges); cysteine pairing not given here) [12-9 (C)]
2 | 2.68 | M[Fc(7)]GGGGGAQLQDYCEGVEDPFTFGCEKQRLE (not fully specified (bridges); cysteine pairing not given here) [12-9-C1 (C)]
3 | 1.41 | M[Fc(7)]GGGGGAQLQDYCEGVEDPFTFGCENQRLE (not fully specified (bridges); cysteine pairing not given here) [12-9-C2 (C)]
4 | 8.42 | M[Fc(7)]GGGGGAQKLEYCDGMEDPFTQGCDNQSLE (not fully specified (bridges); cysteine pairing not given here) [12-9-2 (C)]
5 | 0.09 | MGAQEDYMPLDALDAQLYEQFILLHGLEGGGGG-{Fc(3)} [L1-20 (N)]
6 | 0.05 | MGAQTKFQPLDELDQTLYEQWTLQQRLEGGGGG-Fc [L1-C2 (N)]
7 | 0.81 | M[Fc(7)]GGGGGAQLQEWCEGVEDPFTFGCEKQRLE (not fully specified (bridges); cysteine pairing not given here) [12-9-3 (C)]
8 | 1.84 | M[Fc(7)]GGGGGAQGFEYCDGMEDPFTFGCDKQTLE (not fully specified (bridges); cysteine pairing not given here) [12-9-1 (C)]
9 | 0.04 | MGAQLNFTPLDELEQTLYEQWTLQQSLEGGGGG[Fc(3)] [L1-2 (N)]
10 | 0.04 | MGAQQKYQPLDELDKTLYDQFMLQQGLEGGGGG[Fc(3)] [L1-15 (N)]
11 | 2.05 | M[Fc(7)]GGGGGAQAQDYCEGMEDPFTFGCEMQKLE (not fully specified (bridges); cysteine pairing not given here) [12-9-4 (C)]
12 | 0.95 | M[Fc(7)]GGGGGAQHQEYCEGMEDPFTFGCEYQGLE (not fully specified (bridges); cysteine pairing not given here) [12-9-6 (C)]
13 | 1.62 | MGAQSKFKPLDELEQTLYEQWTLQHALEGGGGG-Fc [L1-9 (N)]
14 | 0.08 | MGAQVKYKPLDELDEWLYHQFTLHHQLEGGGGG[Fc(3)] [L1-17 (N)]
15 | > 1000 | B1
16 | 0.56 | MGAQQKFKPLDELEQTLYEQWTLQQRLEGGGGG-Fc [L1-C1 (N)]
17 | 0.11 | MGAQQKFQPLDELEETLYKQWTLQQRLEGGGGG[Fc(3)] [L1-16 (N)]
18 | 0.08 | MGAQVKFKPLDALEQTLYEHWMFQQALEGGGGG-Fc [L1-4 (N)]
19 | 0.03 | MGAQTNYKPLDELDATLYEHWILQHSLEGGGGG[Fc(7)] [AC6-L1 (N)]
20 | 0.16 | MGAQTKFNPLDELEQTLYEQWTLQHQLEGGGGG-{Fc″} [L1-3 (N)]
21 | 0.08 | MGAQYKFTPLDDLEQTLYEQWTLQHVLEGGGGG[Fc(3)] [L1-12 (N)]

Biological target: T1, human Ang-2
Test: competition ELISA vs Tie-2
Remark: another data set of the same source

Row | IC50 [nM] | Binder
22 | 2.75 | M[Fc(4)]GGGGGAQTTIGSMCEWDPWTCAHMQGGLE (not fully specified (bridges); cysteine pairing not given here) [Con4-C1 (C)]
23 | > 1000 | M[Fc(7)]GGGGGAQRPEDMCSQWDPWTWHLQGYCLE (not fully specified (bridges); cysteine pairing not given here) [Con4-26 (C)]
24 | 86.6 | M[Fc(7)]GGGGGAQTQGLHQCEWDPWTCKVLWPSLE (not fully specified (bridges); cysteine pairing not given here) [Con4-10 (C)]
25 | 0.96 | M[Fc(7)]GGGGGAQGPRISTCQWDPWTCEHMDQLLE (not fully specified (bridges); cysteine pairing not given here) [Con4-17 (C)]
26 | 0.48 | M[Fc(4)]GGGGGAQWAQQEECAWDPWTCDHMVGLLE (not fully specified; cysteine pairing not given here) [Con4-45 (C)]
27 | > 1000 | M[Fc(7)]GGGGGAQMGGAGRCEWDPWTCQLLQGWLE (not fully specified (bridges); cysteine pairing not given here) [Con4-13 (C)]
28 | 6.94 | M[Fc(7)]GGGGGAQAVGSQTCEWDPWTCAHLVEVLE (not fully specified (bridges); cysteine pairing not given here) [Con4-16 (C)]
29 | 0.49 | M[Fc]GGGGGAQLPGQEDCEWDPWTCEHMVRSLE (not fully specified; cysteine pairing not given here) [Con4-37 (C)]
30 | 0.26 | M[Fc(4)]GGGGGAQQHWQEECEWDPWTCDHMPSKLE (not fully specified; cysteine pairing not given here) [Con4-46 (C)]
31 | 1.54 | M[Fc(7)]GGGGGAQVLGGQGCEWDPWTCRLLQGWLE (not fully specified (bridges); cysteine pairing not given here) [AC4-Con4 (C)]
32 | 0.17 | M[Fc(4)]GGGGGAQLRHQEGCEWDPWTCEHMFDWLE (not fully specified; cysteine pairing not given here) [Con4-42 (C)]
33 | > 1000 | M[Fc(7)]GGGGGAQMFLPNECQWDPWTCSNLPEALE (not fully specified (bridges); cysteine pairing not given here) [Con4-14 (C)]
34 | 0.16 | M[Fc(7)]GGGGGAQNRLQEVCEWDPWTCEHMENVLE (not fully specified (bridges); cysteine pairing not given here) [Con4-31 (C)]
35 | 0.52 | M[Fc(7)]GGGGGAQFGWSHGCEWDPWTCEHMGSTLE (not fully specified (bridges); cysteine pairing not given here) [AC2-Con4 (C)]
36 | 0.18 | M[Fc(4)]GGGGGAQSISHEECEWDPWTCEHMQVGLE (not fully specified; cysteine pairing not given here) [Con4-43 (C)]
37 | 0.31 | M[Fc(7)]GGGGGAQRAPQEDCEWDPWTCAHMDIKLE (not fully specified (bridges); cysteine pairing not given here) [Con4-25 (C)]
38 | 9.88 | M[Fc(7)]GGGGGAQTSQRVGCEWDPWTCQHLTYTLE (not fully specified (bridges); cysteine pairing not given here) [Con4-23 (C)]
39 | 0.3 | M[Fc]GGGGGAQPVNQEDCEWDPWTCEHMPPMLE (not fully specified; cysteine pairing not given here) [Con4-39 (C)]
40 | 3.21 | M[Fc(7)]GGGGGAQTKGKSVCQWDPWTCSHMQSGLE (not fully specified (bridges); cysteine pairing not given here) [Con4-21 (C)]
